Blank lines part the entries; values can stand above or below the binder they belong to.
Key:
[1] = target: T1, human LTBP1-proTGFβ1 complex (human, UniProt Q14766 347-1721; P01137 30-390); assay: Octet BLI, IgG captured
T1 construct: Large latent complex: one presenting molecule disulfide-linked to a proTGFβ1 dimer; also called Hu LTBP1-proTGFβ1; huLTBP1 proTGFβ1
Method: (§1) LTBP complex-specific antibodies from the first round of affinity maturation/optimization (SR-AB14, SR-AB16, SR-AB17, SR-AB18, SR-AB19) were selected for a second round of affinity maturation/optimization (i.e., CDR-H3 mutagenesis as described herein) and particular progeny antibodies (SR-AB20, SR-AB21, SR-AB22, SR-AB23, SR-AB24, SR-AB25, SR-AB26, SR-AB27, SR-AB28, and SR-AB29) were assessed for their ability to bind various proTGFβ1 constructs. Binding affinities of the optimized antibodies were measured by Octet against human LTBP1-proTGFβ1, human LTBP3-proTGFbl, mouse LTBP1-proTGFβ1, mouse LTBP3-proTGFbl, and GARP-proTGFβ1 complexes, essentially as described in Example 6. […] The antigens were allowed to associate for 3 minutes followed by a 5-minute dissociation. Kinetics buffer (ForteBio®) was used throughout the experiment, and KD was determined using a 1:1 fitting model for each antibody antigen pair.

[2] = target: T2, human LTBP3-proTGFβ1 complex (human, UniProt Q9NS15 44-1303; P01137 30-390, limits assumed); assay: Octet BLI, IgG captured
T2 construct: Exemplary entries; also called Hu LTBP3-proTGFβ1; huLTBP3 proTGFb1
Method: as §1

[3] = target: T3, mouse LTBP1-proTGFβ1 complex (mouse, UniProt Q8CG19 339-1712; P04202 30-390); assay: Octet BLI, IgG captured
T3 construct: Exemplary entries; In the cell assays expressed from mouse LTBP1S and mouse proTGFb1 plasmids in LN229 cells; also called Mo LTBP1-proTGFβ1; MuLTBP1-ProTGFb1
Method: as §1
Target sequence in this assay (Q8CG19 339-1712 limits assumed, chain 1 of 2): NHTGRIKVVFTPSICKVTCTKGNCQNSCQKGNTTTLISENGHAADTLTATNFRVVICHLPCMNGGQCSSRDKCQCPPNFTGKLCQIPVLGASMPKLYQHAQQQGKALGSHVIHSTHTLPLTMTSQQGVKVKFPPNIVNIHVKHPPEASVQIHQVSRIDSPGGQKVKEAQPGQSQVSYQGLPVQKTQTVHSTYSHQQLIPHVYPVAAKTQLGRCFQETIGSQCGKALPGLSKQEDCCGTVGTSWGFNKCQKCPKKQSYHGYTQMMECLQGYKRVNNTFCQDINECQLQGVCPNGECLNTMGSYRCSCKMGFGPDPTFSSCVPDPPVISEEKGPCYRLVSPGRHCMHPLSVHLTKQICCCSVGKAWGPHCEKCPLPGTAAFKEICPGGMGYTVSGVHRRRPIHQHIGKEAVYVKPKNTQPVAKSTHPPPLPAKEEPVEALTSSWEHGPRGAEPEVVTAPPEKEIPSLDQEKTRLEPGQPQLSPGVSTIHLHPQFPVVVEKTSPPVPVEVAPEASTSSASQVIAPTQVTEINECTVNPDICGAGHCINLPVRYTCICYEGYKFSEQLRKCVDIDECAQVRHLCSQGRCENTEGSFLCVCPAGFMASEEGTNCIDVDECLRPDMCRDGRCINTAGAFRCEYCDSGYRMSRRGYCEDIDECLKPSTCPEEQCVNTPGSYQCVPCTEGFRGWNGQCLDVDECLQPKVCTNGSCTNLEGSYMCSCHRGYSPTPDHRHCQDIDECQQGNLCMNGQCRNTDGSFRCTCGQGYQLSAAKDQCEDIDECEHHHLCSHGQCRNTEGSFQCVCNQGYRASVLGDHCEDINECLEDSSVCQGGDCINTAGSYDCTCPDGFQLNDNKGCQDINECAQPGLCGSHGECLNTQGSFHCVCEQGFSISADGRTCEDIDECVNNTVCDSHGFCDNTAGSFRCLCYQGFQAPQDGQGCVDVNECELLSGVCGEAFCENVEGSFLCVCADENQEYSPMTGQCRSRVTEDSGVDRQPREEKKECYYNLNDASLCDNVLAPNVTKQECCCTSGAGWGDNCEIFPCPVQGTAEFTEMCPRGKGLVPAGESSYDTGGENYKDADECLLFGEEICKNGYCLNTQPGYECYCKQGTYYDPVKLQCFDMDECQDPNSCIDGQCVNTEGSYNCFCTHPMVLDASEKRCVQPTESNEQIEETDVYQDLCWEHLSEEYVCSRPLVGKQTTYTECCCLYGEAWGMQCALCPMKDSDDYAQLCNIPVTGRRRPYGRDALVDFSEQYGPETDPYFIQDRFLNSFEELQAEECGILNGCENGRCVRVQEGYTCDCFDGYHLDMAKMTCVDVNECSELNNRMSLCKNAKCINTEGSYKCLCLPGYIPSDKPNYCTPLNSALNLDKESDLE
Target sequence in this assay (P04202 30-390 limits assumed, chain 2 of 2): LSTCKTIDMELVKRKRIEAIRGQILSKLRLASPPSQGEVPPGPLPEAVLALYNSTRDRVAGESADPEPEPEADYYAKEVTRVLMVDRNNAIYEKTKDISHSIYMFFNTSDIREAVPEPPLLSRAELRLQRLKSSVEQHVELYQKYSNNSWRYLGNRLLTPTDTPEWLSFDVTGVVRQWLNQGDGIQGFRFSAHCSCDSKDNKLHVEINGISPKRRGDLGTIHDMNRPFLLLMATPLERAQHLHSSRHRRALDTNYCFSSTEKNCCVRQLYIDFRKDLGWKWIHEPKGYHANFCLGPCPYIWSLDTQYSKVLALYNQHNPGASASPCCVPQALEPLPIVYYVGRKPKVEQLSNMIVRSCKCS

[4] = target: T4, mouse LTBP3-proTGFβ1 complex (mouse, UniProt Q61810 41-1245; P04202 30-390, limits assumed); assay: Octet BLI, IgG captured
T4 construct: Exemplary entries; also called Mo LTBP3-proTGFβ1; Murine LTBP3 proTGFb1
T4 sequence (Q61810 other isoform, or with tags, fused parts or gaps limits assumed, chain 1 of 2): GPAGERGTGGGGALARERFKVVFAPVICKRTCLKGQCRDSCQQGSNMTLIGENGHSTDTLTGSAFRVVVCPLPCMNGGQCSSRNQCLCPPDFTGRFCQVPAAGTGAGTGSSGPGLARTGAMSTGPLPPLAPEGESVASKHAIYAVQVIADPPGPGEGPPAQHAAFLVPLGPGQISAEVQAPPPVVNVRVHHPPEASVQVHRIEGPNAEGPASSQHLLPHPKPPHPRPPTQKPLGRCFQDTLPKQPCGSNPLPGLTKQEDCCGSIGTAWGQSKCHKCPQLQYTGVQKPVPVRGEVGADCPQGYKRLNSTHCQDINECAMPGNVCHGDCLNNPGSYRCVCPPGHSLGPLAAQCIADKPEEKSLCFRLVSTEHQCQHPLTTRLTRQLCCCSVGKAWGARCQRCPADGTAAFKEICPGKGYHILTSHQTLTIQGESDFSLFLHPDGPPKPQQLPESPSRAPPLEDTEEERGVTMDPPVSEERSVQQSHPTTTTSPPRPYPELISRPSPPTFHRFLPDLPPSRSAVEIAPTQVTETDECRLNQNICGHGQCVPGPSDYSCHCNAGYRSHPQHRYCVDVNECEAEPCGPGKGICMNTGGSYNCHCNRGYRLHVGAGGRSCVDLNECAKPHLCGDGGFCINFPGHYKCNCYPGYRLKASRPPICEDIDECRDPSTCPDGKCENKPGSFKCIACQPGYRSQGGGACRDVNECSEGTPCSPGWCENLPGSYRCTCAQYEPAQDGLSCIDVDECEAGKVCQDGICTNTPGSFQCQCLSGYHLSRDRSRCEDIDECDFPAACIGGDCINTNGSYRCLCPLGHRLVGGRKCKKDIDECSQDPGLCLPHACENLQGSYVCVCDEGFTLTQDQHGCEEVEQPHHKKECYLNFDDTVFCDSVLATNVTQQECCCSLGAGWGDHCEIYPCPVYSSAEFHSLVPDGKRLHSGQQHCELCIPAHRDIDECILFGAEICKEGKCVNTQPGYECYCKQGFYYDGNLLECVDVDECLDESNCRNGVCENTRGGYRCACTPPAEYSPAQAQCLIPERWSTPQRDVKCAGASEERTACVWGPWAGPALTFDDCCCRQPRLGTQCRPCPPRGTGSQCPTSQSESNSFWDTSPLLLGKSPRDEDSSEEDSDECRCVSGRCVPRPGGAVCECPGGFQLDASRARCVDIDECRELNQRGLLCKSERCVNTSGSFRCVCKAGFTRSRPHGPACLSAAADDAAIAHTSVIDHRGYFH
T4 sequence (P04202 30-390 limits assumed, chain 2 of 2): as the sequence (P04202 30-390 limits assumed, chain 2 of 2) above
Method: as §1

[5] = target: T5, human GARP-proTGFβ1 complex (human, UniProt Q14392 18-627; P01137 30-390, limits assumed); assay: Octet (bio-layer interferometry), response at 200 nM antigen; 0.1 nm cutoff designates meaningful binding
T5 construct: Exemplary entries; also called Hu GARP-proTGFβ1; huGARP proTGFb1
T5 sequence (Q14392 18-627 limits assumed, chain 1 of 2): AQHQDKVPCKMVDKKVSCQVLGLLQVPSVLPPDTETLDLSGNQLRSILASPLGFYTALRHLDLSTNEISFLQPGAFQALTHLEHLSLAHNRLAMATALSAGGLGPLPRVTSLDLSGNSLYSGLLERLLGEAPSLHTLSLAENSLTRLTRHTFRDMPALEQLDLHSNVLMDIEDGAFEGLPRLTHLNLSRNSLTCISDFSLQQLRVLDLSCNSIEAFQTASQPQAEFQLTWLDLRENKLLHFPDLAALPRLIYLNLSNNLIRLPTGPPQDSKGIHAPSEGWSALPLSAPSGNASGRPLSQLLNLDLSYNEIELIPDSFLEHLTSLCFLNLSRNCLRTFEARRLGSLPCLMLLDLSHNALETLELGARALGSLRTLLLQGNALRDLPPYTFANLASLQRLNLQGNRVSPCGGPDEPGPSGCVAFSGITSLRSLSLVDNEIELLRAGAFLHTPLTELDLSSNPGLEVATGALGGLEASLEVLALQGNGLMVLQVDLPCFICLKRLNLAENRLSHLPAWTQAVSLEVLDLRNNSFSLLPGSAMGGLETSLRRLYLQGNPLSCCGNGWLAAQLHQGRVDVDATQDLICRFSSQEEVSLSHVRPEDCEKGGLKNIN
T5 sequence (P01137 30-390 limits assumed, chain 2 of 2): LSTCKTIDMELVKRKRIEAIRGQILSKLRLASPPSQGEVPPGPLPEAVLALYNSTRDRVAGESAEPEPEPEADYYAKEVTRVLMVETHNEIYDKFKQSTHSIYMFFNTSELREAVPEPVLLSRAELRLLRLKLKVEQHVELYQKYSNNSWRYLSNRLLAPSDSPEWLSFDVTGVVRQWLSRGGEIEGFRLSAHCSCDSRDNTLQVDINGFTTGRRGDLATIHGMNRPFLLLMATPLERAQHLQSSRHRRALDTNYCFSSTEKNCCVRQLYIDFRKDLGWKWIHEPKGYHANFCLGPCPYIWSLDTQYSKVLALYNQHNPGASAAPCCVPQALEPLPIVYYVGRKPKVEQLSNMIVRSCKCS
Method: This experiment was performed at 200, 100, 50, and 25 nM human GARP proTGFb1 and human LTBP1 proTGFbl. […] Surface plasmon resonance (SPR)-based assays

[6] = target: T3, mouse LTBP1-proTGFβ1 complex; assay: cell-based or functional assay
Target sequence in this assay (Q8CG19 339-1712 limits assumed, chain 1 of 2): as the sequence (Q8CG19 339-1712 limits assumed, chain 1 of 2) above
Target sequence in this assay (P04202 30-390 limits assumed, chain 2 of 2): as the sequence (P04202 30-390 limits assumed, chain 2 of 2) above

[7] = target: LTBP-proTGFβ1: transfected human proTGFβ1 presented by endogenous LTBP1/3 of LN229 cells (human); assay: cell-based or functional assay
LTBP-proTGFβ1: transfected human proTGFβ1 presented by endogenous LTBP1/3 of LN229 cells (human), sequence (P01137 30-390): as the sequence (P01137 30-390 limits assumed, chain 2 of 2) above

[8] = target: T6, human LRRC33-proTGFβ1 complex (human, UniProt Q86YC3 19-650; P01137 30-390, limits assumed); assay: Octet, antibody immobilized
T6 construct: Exemplary entries; also called huLRRC33 proTGFb1; HuLRRC33-ProTGFb1

[9] = target: T1, human LTBP1-proTGFβ1 complex; assay: Octet binning; competitor (immobilized second antibody) SR-AB13
Method: (§2) 500 nM of human LTBP1-proTGFb1 complex was pre-incubated with 1 μM of each test antibody. After an overnight incubation, the LTBP1-proTGFβ1+first antibody was tested for binding to a second antibody which was immobilized to an Anti-Human IgG Fc Capture (AHC) sensor tip at 67 nM. The sensor tip was blocked with a negative control antibody (HuNeg) before seeing the LTBP1-proTGFβ1+first antibody.
(§3) Normalized responses less than 70% or less than 0.7 of the uninhibited interaction were considered antibodies that cross block.

[10] = target: T1, human LTBP1-proTGFβ1 complex; assay: Octet binning; competitor (immobilized second antibody) SR-AB2
Method: as §2, §3

[11] = target: T7, mature TGFβ1 (UniProt P01137 279-390); assay: FIG. 2B binding assay
T7 construct: mature
T7 sequence (P01137 279-390 limits assumed): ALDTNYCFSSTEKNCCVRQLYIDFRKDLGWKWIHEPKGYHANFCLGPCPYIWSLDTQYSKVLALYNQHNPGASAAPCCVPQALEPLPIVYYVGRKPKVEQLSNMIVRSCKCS

[12] = target: T1, human LTBP1-proTGFβ1 complex; assay: bio-layer interferometry sensorgrams (y axis nm), concentration series with kinetic table under the panel; concentrations not shown
[13] = target: T3, mouse LTBP1-proTGFβ1 complex; assay: as above
Target sequence in this assay (P04202 30-390 limits assumed, one chain of several): as the sequence (P04202 30-390 limits assumed, chain 2 of 2) above

[14] = target: T8, Rat LTBP1-proTGFβ1 (rat); assay: as above
T8 construct: the sheet labels the whole complex 'Rat'; Named only on the sheet; The legend says only that SR-AB2 cross-reacts with rodent LTBP1-proTGFβ1

[15] = target: T1, human LTBP1-proTGFβ1 complex; assay: Octet binning; competitor (immobilized second antibody) SR-AB10
Method: as §2, §3

[16] = target: T4, mouse LTBP3-proTGFβ1 complex; assay: Octet (bio-layer interferometry), yeast expressed IgG1Agly antibody, antigen at a single 100 nM per Example 6
[17] = target: T5, human GARP-proTGFβ1 complex; assay: as above
[18] = target: T1, human LTBP1-proTGFβ1 complex; assay: Octet binning; competitor (immobilized second antibody) SR-AB1
Method: as §2, §3

[19] = target: T1, human LTBP1-proTGFβ1 complex; assay: Octet (bio-layer interferometry), yeast expressed IgG1Agly antibody, antigen at a single 100 nM per Example 6, 1:1 fit; value printed under the panel
[20] = target: T3, mouse LTBP1-proTGFβ1 complex; assay: as above
Target sequence in this assay (P04202 30-390 limits assumed, one chain of several): as the sequence (P04202 30-390 limits assumed, chain 2 of 2) above

[21] = target: T9, proTGFβ1 alone (Homo sapiens (Human), UniProt P01137 30-390); assay: ELISA on immobilised antigen (Example 4), RLU, mean ± SD
T9 construct: proTGFβ1 not in complex with a presenting molecule
T9 sequence (P01137 30-390): as the sequence (P01137 30-390 limits assumed, chain 2 of 2) above

[22] = target: T10, LTBP1 alone (Homo sapiens (Human), UniProt Q14766 347-1721); assay: as above
T10 construct: LTBP1 not in complex with TGFβ1
T10 sequence: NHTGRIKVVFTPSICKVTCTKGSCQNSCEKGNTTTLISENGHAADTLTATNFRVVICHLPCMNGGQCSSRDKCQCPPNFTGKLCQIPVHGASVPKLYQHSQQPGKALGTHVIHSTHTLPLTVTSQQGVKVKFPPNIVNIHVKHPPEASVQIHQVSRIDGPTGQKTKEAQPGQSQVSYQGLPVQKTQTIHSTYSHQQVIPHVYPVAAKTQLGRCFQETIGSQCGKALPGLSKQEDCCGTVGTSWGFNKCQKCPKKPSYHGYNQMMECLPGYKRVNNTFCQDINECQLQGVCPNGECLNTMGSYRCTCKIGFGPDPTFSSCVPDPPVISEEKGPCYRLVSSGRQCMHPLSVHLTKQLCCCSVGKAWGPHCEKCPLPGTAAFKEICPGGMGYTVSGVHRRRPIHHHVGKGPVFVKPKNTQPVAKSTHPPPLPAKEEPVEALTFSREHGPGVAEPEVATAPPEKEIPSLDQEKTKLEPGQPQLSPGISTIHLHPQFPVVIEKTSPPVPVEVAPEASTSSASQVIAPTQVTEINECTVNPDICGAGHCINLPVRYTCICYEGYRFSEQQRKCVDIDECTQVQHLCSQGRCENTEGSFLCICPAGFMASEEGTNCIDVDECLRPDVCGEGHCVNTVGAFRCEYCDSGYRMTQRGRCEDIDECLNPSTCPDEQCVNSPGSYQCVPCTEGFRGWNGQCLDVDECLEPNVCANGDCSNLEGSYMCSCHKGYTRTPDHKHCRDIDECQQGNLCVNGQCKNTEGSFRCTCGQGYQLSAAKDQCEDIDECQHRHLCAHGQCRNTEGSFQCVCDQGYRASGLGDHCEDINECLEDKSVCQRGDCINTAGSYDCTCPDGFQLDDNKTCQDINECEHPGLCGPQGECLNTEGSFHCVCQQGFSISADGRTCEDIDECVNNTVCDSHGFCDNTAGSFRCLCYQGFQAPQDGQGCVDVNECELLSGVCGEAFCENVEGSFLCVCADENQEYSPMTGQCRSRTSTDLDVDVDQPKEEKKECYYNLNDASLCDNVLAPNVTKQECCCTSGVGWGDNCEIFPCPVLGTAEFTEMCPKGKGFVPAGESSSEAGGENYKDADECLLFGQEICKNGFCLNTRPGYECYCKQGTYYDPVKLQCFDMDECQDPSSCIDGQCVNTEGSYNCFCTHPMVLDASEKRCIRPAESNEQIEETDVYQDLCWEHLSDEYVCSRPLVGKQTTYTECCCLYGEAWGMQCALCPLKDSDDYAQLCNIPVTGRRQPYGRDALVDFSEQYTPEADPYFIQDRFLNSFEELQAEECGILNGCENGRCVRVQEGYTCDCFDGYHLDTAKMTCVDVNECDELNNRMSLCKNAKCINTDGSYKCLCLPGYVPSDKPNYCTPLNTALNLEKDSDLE

T1 sequence (P01137 30-390 limits assumed, one chain of several): as the sequence (P01137 30-390 limits assumed, chain 2 of 2) above

Kd [1]: 5.98 nM
Kd [2]: 1.26 nM
Kd [3]: 8.38 nM
Kd [4]: 7.93 nM
binding result [5]: no binding (tested: 200 nM)
IC50, mLTBP1 assay (CAGA12 luciferase) [6]: 0.946 nM
IC50, endogenous hLTBP assay (CAGA12 luciferase) [7]: 6.04 nM
binding result [8]: no binding
B1: SR-AB23 (antibody, IgG1, V domains shown)
VH: QVQLVESGGGVVQPGRSLRLSCAASGFTFRSYVMHWVRQAPGKGLEWVAVISHEGSLKYYADSVKGRFTISRDNSKNTLYLQMNSLRAEDTAVYYCARPRIAARRGGFGYWGQGTLVTVSS
VL: NFMLTQPHSVSESPGKTVTISCTRSSGNIDNNYVQWYQQRPGSSPTTVIYEDNQRPSGVPDRFSGSIDSSSNSASLTISGLKTEDEADYYCQSYDSDNQGVVFGGGTKLTVL
notes: Cycle 2, lineage SR-AB14

normalized response [9]: 1.31 fraction of uninhibited binding
normalized response [10]: 0.47 fraction of uninhibited binding
binding result [11]: no binding
Kd [12]: 188 nM
kobs [12]: 0.0142 s⁻¹
koff [12]: 0.00502 s⁻¹
kon [12]: 28400 M⁻¹ s⁻¹
Kd [13]: 204 nM
kobs [13]: 0.0134 s⁻¹
koff [13]: 0.00517 s⁻¹
kon [13]: 26600 M⁻¹ s⁻¹
Kd [14]: 174 nM
kobs [14]: 0.0176 s⁻¹
koff [14]: 0.00582 s⁻¹
kon [14]: 41900 M⁻¹ s⁻¹
normalized response [15]: 1.54 fraction of uninhibited binding
binding result [16]: no binding (tested: 100 nM)
binding result [17]: no binding (tested: 100 nM)
normalized response [18]: 1.11 fraction of uninhibited binding
Kd [19]: 118 nM
Kd [20]: 245 nM
binding result [21]: no binding
binding result [22]: no binding
B2: SR-AB2 (antibody, V domains shown)
VH: QVQLVQSGAEVKKPGASVKVSCKASGYTFTSYGISWVRQAPGQGLEWMGWISAYNGNTNYAQKLQGRVTMTTDTSTSTAYMELRSLRSDDTAVYYCARAPLGNFDSWGQGTMVTVSS
VL: NFMLTQPHSVSESPGKTVTISCTRSSGSIASNYVQWYQQRPGSSPTTVIYEDNQRPSGVPDRFSGSIDSSSNSASLTISGLKTEDEADYYCQSYDSSNHPVVFGGGTKLTVL

— US20220064276A1 (SCHOLAR ROCK, published 2022)
